Values quoted from earlier work in article PMC5371383.

Key:
MC1R (Homo sapiens) = MC1R (Homo sapiens) (UniProt Q01726)
MC1R (Gallus gallus) = MC1R (Gallus gallus) (UniProt P55167)
UniProt P55167, sequence (P55167 whole entry): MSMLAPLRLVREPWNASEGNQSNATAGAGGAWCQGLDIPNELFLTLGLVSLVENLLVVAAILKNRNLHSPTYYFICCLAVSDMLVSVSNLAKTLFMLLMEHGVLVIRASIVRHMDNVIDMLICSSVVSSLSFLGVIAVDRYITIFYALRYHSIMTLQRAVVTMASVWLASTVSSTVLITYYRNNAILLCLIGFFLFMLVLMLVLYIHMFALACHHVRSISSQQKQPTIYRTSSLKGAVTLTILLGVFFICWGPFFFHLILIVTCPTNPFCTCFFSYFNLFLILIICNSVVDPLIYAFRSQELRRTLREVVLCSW

UniProt Q01726, sequence (Q01726 whole entry): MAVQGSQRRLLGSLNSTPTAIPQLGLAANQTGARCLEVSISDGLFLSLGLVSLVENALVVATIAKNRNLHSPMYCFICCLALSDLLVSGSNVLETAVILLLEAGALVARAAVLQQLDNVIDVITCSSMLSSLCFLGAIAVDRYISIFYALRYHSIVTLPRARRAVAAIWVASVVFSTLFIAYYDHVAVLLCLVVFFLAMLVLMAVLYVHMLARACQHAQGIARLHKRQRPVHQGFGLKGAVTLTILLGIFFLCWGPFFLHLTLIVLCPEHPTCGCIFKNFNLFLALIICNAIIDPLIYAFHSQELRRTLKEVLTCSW

**Q.** What does the source list for α-MSH (from UniProt P01189)?
**A.** Kd (MC1R (Homo sapiens)): 0.21 nM; Kd (MC1R (Gallus gallus)): 363 nM
